{"source": "the supplement of paper PMC9112550", "about": "“Optimization of the antimicrobial peptide Bac7 by deep mutational scanning” (BMC Biology, 2022);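 also: peptides expressed intracellularly from a pBAD plasmid library in pooled LB shake-flask culture, induced with 0.3% L-arabinose, DNA abundance read by NGS, three biological replicates, DESeq2 with apeglm shrinkage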"}
{"tested_on": "Escherichia coli TOP10", "assay": "shrunken log2 fold change of peptide-encoding DNA abundance (4.5 h post-induction vs induction); higher = less antimicrobial activity (less host growth inhibition)", "conditions": "time post-induction: 4.5 h; library: site-saturation at positions 5, 18, 19, 20"}
{"sequence": "RRIRMRPPRLPRPRPRPNRVPRP", "shrunken log2 fold change": -0.144}
{"sequence": "RRIRDRPPRLPRPRPRPYRWPRP", "shrunken log2 fold change": -0.146}
{"sequence": "RRIRQRPPRLPRPRPRPLWLPRP", "shrunken log2 fold change": 0.0736}
{"sequence": "RRIRSRPPRLPRPRPRPEGKPRP", "shrunken log2 fold change": 0.0822}
{"sequence": "RRIRCRPPRLPRPRPRPIYIPRP", "shrunken log2 fold change": -0.43}
{"sequence": "RRIRGRPPRLPRPRPRPMPMPRP", "shrunken log2 fold change": 0.352}
{"sequence": "RRIRPRPPRLPRPRPRPKRCPRP", "shrunken log2 fold change": -0.0846}
{"sequence": "RRIRYRPPRLPRPRPRPRMVPRP", "shrunken log2 fold change": -0.475}
{"sequence": "RRIRFRPPRLPRPRPRPQLAPRP", "shrunken log2 fold change": 0.0569}
{"sequence": "RRIRGRPPRLPRPRPRPCTSPRP", "shrunken log2 fold change": 0.188}
{"sequence": "RRIRVRPPRLPRPRPRPMTTPRP", "shrunken log2 fold change": 0.0377}
{"sequence": "RRIRQRPPRLPRPRPRPWQGPRP", "shrunken log2 fold change": -0.137}
{"sequence": "RRIRSRPPRLPRPRPRPSFNPRP", "shrunken log2 fold change": -0.644}
{"sequence": "RRIRVRPPRLPRPRPRPRTLPRP", "shrunken log2 fold change": -0.222}
{"sequence": "RRIRPRPPRLPRPRPRPDIPPRP", "shrunken log2 fold change": -0.219}
{"sequence": "RRIRTRPPRLPRPRPRPWMSPRP", "shrunken log2 fold change": 0.00487}
{"sequence": "RRIRMRPPRLPRPRPRPKLCPRP", "shrunken log2 fold change": 0.438}
{"sequence": "RRIRIRPPRLPRPRPRPMGIPRP", "shrunken log2 fold change": 0.000142}
{"sequence": "RRIRDRPPRLPRPRPRPCSMPRP", "shrunken log2 fold change": -0.0575}
{"sequence": "RRIRQRPPRLPRPRPRPQYFPRP", "shrunken log2 fold change": -0.00133}
{"sequence": "RRIRDRPPRLPRPRPRPPLYPRP", "shrunken log2 fold change": 0.0303}
{"sequence": "RRIRGRPPRLPRPRPRPWLQPRP", "shrunken log2 fold change": 0.201}
{"sequence": "RRIRHRPPRLPRPRPRPSTDPRP", "shrunken log2 fold change": -0.406}
{"sequence": "RRIRGRPPRLPRPRPRPGSWPRP", "shrunken log2 fold change": 0.938}
{"sequence": "RRIRARPPRLPRPRPRPAWVPRP", "shrunken log2 fold change": 0.235}
{"sequence": "RRIRNRPPRLPRPRPRPHLIPRP", "shrunken log2 fold change": -0.00549}
{"sequence": "RRIRERPPRLPRPRPRPYNGPRP", "shrunken log2 fold change": -0.509}
{"sequence": "RRIRARPPRLPRPRPRPFRIPRP", "shrunken log2 fold change": -0.169}
{"sequence": "RRIRLRPPRLPRPRPRPVRLPRP", "shrunken log2 fold change": 0.576}
{"sequence": "RRIRLRPPRLPRPRPRPPLEPRP", "shrunken log2 fold change": 0.752}
{"sequence": "RRIRARPPRLPRPRPRPHLGPRP", "shrunken log2 fold change": 0.0806}
{"sequence": "RRIRSRPPRLPRPRPRPDSNPRP", "shrunken log2 fold change": -0.529}
{"sequence": "RRIRWRPPRLPRPRPRPLSNPRP", "shrunken log2 fold change": -0.252}
{"sequence": "RRIRDRPPRLPRPRPRPNQAPRP", "shrunken log2 fold change": -0.0261}
{"sequence": "RRIRNRPPRLPRPRPRPIDKPRP", "shrunken log2 fold change": -0.0756}
{"sequence": "RRIRARPPRLPRPRPRPHLMPRP", "shrunken log2 fold change": 0.0747}
{"sequence": "RRIRGRPPRLPRPRPRPNWDPRP", "shrunken log2 fold change": 0.738}
{"sequence": "RRIRDRPPRLPRPRPRPVYWPRP", "shrunken log2 fold change": -0.469}
{"sequence": "RRIRPRPPRLPRPRPRPCCQPRP", "shrunken log2 fold change": -0.516}
{"sequence": "RRIRNRPPRLPRPRPRPIKKPRP", "shrunken log2 fold change": 0.149}
{"sequence": "RRIRRRPPRLPRPRPRPSDSPRP", "shrunken log2 fold change": 0.141}
{"sequence": "RRIRPRPPRLPRPRPRPETNPRP", "shrunken log2 fold change": 0.192}
{"sequence": "RRIRNRPPRLPRPRPRPLTYPRP", "shrunken log2 fold change": -0.979}
{"sequence": "RRIRPRPPRLPRPRPRPGIWPRP", "shrunken log2 fold change": 0.157}
{"sequence": "RRIRLRPPRLPRPRPRPGSQPRP", "shrunken log2 fold change": 0.0681}
{"sequence": "RRIRHRPPRLPRPRPRPILWPRP", "shrunken log2 fold change": -0.0569}
{"sequence": "RRIRQRPPRLPRPRPRPKASPRP", "shrunken log2 fold change": -0.0573}
{"sequence": "RRIRGRPPRLPRPRPRPYRIPRP", "shrunken log2 fold change": 0.178}
{"sequence": "RRIRYRPPRLPRPRPRPPYWPRP", "shrunken log2 fold change": -0.22}
{"sequence": "RRIRNRPPRLPRPRPRPLVQPRP", "shrunken log2 fold change": -0.28}
